From patent US20190194660A1 (UNIVERSITY OF SHEFFIELD, published 2019)

Biological target: T1, endogenous NXF1 in mouse neuronal N2A cells (mouse (endogenous in mouse neuronal N2A …, UniProt Q99JX7 2-618))
T1 construct: Detected with anti-NXF1 clone 53H8 after anti-FLAG immunoprecipitation; also called TAP/NXF1; nuclear export factor 1
T1 sequence (looked up): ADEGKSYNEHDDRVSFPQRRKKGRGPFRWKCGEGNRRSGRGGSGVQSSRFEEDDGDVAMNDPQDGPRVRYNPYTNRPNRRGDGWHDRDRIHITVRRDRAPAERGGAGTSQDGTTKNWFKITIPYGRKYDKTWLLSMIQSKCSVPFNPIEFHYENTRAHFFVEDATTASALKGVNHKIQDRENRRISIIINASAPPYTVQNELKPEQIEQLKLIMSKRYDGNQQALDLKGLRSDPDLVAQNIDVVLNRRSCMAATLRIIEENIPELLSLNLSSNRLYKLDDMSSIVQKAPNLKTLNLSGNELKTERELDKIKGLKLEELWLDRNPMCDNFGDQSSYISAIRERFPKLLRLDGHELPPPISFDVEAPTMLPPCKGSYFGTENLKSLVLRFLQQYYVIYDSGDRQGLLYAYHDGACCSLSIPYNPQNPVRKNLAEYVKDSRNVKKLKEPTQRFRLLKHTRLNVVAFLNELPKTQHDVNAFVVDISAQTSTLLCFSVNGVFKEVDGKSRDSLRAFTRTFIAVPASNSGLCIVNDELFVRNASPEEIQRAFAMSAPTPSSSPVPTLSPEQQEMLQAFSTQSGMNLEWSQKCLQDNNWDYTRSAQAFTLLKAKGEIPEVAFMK
Assay: anti-FLAG co-immunoprecipitation of endogenous NXF1 from transfected N2A cells (FIG. 6)
Procedure: Co-immunoprecipitation of endogenous NXF1 is assessed using anti-NXF1 antibodies;

- binding result: no binding
B1: FLAG-tagged SRSF1 11-196 quadruple mutant (SRSF1-m4) (other)
chain: AGNNDCRIYVGNLPPDIRTKDIEDVFYKYGAIRDIDLKNRRGGPPFAFVEFEDPRDAEDAVYGRDGYDYDGYRLRVEFPASGAGTGRGGGGGGGGGAPRGRYGPPSAASENRVVVSGLPPSGSWQDLKDHMREAGDVCYADVYRDGTGVVEFVRKEDMTYAVRKLDNTKFRSHEGETAYIRVKVDG
notes: also called p3xFLAG/SRSF1 (11-196)-m4; dominant negative mutant SRSF1-m4; not shown: FLAG tag from the p3xFLAG vector (Sigma)
